Positions count from the first letter of the chain named. In names and notes the source's numbering stands.
B1: Omi-S306A: recombinant mature Omi with active site Ser306 mutated to Ala, C-terminal His6 tag (protein)
chain: AVPSPPPASPRSQYNFIADVVEKTAPAVVYIEILDRHPFLGREVPISNGSGFVVAADGLIVTNAHVVADRRRVRVRLLSGDTYEAVVTAVDPVADIATLRIQTKEPLPTLPLGRSADVRQGEFVVAMGSPFALQNTITSGIVSSAQRPARDLGLPQTNVEYIQTDAAIDFGNAGGPLVNLDGEVIGVNTMKVTAGISFAIPSDRLREFLHRGEKKNSSSGISGSQRRYIGVMMLTLSPSILAELQLREPSFPDVQHGVLIHKVILGSPAHRAGLRPGDVILAIGEQMVQNAEDVYEAVRTQSQLAVQIRRGRETLTLYVTPEVTEHHHHHH
B2: Omi-ΔAVPS: recombinant mature Omi with deletion of the AVPS motif, C-terminal His6 tag (protein)
chain: PPPASPRSQYNFIADVVEKTAPAVVYIEILDRHPFLGREVPISNGSGFVVAADGLIVTNAHVVADRRRVRVRLLSGDTYEAVVTAVDPVADIATLRIQTKEPLPTLPLGRSADVRQGEFVVAMGSPFALQNTITSGIVSSAQRPARDLGLPQTNVEYIQTDAAIDFGNSGGPLVNLDGEVIGVNTMKVTAGISFAIPSDRLREFLHRGEKKNSSSGISGSQRRYIGVMMLTLSPSILAELQLREPSFPDVQHGVLIHKVILGSPAHRAGLRPGDVILAIGEQMVQNAEDVYEAVRTQSQLAVQIRRGRETLTLYVTPEVTEHHHHHH
B3: AAAS: C-terminal Flag-tagged Omi precursor mutant with the AVPS motif mutated to AAAS (protein, UniProt O43464 1-458, looked up, variant V135A P136A)
chain: MAAPRAGRGAGWSLRAWRALGGIRWGRRPRLTPDLRALLTSGTSDPRARVTYGTPSLWARLSVGVTEPRACLTSGTPGPRAQLTAVTPDTRTREASENSGTRSRAWLAVALGAGGAVLLLLWGGGRGPPAVLAAAASPPPASPRSQYNFIADVVEKTAPAVVYIEILDRHPFLGREVPISNGSGFVVAADGLIVTNAHVVADRRRVRVRLLSGDTYEAVVTAVDPVADIATLRIQTKEPLPTLPLGRSADVRQGEFVVAMGSPFALQNTITSGIVSSAQRPARDLGLPQTNVEYIQTDAAIDFGNSGGPLVNLDGEVIGVNTMKVTAGISFAIPSDRLREFLHRGEKKNSSSGISGSQRRYIGVMMLTLSPSILAELQLREPSFPDVQHGVLIHKVILGSPAHRAGLRPGDVILAIGEQMVQNAEDVYEAVRTQSQLAVQIRRGRETLTLYVTPEVTE
modifications: full-length C-terminal Flag tag
B4: Omi precursor: C-terminally Flag-tagged full-length Omi precursor (SEQ ID NO:1) expressed from a transfected construct (protein, listed as Homo sapiens)
chain: B3 chain with A135V, A136P
modifications: C-terminal Flag tag
B5: active site Omi precursor mutant: S306A Omi precursor with mutant VVAS sequence instead of the AVPS motif (protein, UniProt O43464 1-458, looked up, variant A134V P136A S306A)
chain: B3 chain with A134V, A135V, S306A
modifications: full-length
B6: Smac: mitochondrial IAP-binding protein; recombinant mature form with C-terminal His6 tag (protein, UniProt Q9NR28 22-239, looked up)
Diablo IAP-binding …: LCVPVVANFKKRCFSELIRPWHKTVTIGFGVTLCAVPIAQKSEPHSLSSEALMRRAVSLVTDSTSTFLSQTTYALIEAITEYTKAVYTLTSLYRQYTSLLGKMNSEEEDEVWQVIIGARAEMTSKHQEYLKLETTWMTAVGLSEMAAEAAYQTGADQASITARNHIQLVKLQVEEVHQLSRKAETKLAEAQIEELRQKTQEEGEERAESEQEAYLRED
modifications: C-terminal His6 tag

Experiments:
[1] = biological target: T1, GST-BIR3 fusion protein (BIR3 domain of human XIAP) (Homo sapiens, UniProt P98170); assay: Interaction of purified recombinant proteins with GST-BIR3 fusion protein (SDS-PAGE, Coomassie); type: binding; conditions: purified C-terminal His6-tagged recombinant protein; wild type GST-BIR3
T1 construct: Omi associates directly with the BIR3 domain of XIAP
T1 sequence (P98170 238-358 limits assumed): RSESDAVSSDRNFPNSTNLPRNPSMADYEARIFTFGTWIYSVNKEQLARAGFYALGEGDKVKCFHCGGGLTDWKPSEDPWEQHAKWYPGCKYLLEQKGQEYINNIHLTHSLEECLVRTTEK
Source text: (§1) FIGS. 7A and 7B are scanned images of Coomassie stained gels representing SDS-PAGE analysis of purified C-terminal His6-tagged recombinant wild type mature Omi (WT), Omi-ΔAVPS, Omi-S306A, and mature Smac (7A) and recombinant Omi and Smac proteins with GST-BIR1, GST-BIR2, GST-BIR3, or GST-BIR3-E314S fusion proteins (7B).
(§2) To determine whether a recombinant Omi lacking the first 133 residues (mature Omi) can interact with the GST-BIR3 fusion protein, this protein was expressed with a C-terminal His6 tag in bacteria and purified to apparent homogeneity (see FIG. 7B). […] FIGS. 7A and 7B show scanned images of Coomassie stained gels representing SDS-PAGE analysis of purified C-terminal His6-tagged recombinant wild type mature Omi (WT), Omi-ΔAVPS, Omi-S306A, and mature Smac (FIG. 7A) and recombinant Omi and Smac proteins with GST-BIR1, 2, GST-BIR3 or GST-BIR3-E314S fusion proteins (FIG. 7B).

[2] = biological target: T2, caspase-9 interaction with XIAP (procaspase-3 activation) (Homo sapiens, UniProt P98170); assay: Procaspase-3 activation in XIAP-containing S100 extracts stimulated with cytochrome c and dATP; type: biochemical; conditions: S100 extracts with purified XIAP, cytochrome c plus dATP; 10, 50 or 300 ng protein
T2 construct: caspase-9: endogenous in 293T/HEK293 S100 extract
T2 sequence (P98170 whole entry): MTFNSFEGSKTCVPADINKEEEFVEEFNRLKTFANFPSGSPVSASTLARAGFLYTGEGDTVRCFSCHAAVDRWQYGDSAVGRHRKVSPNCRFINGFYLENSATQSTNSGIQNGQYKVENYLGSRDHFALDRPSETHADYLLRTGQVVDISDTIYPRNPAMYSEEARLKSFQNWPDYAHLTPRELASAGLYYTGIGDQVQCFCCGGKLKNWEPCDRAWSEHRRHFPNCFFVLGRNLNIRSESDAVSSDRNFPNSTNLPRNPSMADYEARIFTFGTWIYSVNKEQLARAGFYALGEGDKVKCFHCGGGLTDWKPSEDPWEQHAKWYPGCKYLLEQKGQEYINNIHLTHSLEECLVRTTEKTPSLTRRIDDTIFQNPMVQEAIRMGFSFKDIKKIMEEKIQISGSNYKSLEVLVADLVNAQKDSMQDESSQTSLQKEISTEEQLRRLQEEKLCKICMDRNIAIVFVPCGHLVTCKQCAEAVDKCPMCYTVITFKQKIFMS
Procedure: FIG. 17 is a scanned image of an autoradiogram, representing SDS-PAGE analysis of ^35S-labeled procaspase-3 following stimulation of 293T S100 extracts (20μg) mixed with purified XIAP (50 ng) with cytochrome c (0.5 μg) plus dATP (1 mM), in the presence of increasing amounts (10, 50, or 300 ng, respectively) of purified mature WT Omi, Omi-ΔAVPS, Omi-S306A, or mature Smac in 10 μl reaction volume. In the fifth lane, S100 extracts were incubated with. 300 ng of WT Omi without XIAP.
Next, it was determined whether Omi, like Smac, promotes caspase-9 activity in HEK293 S100 extracts in the presence of XIAP. To measure the caspase-9 activity in these extracts, ^35S-labeled procaspase-3 was added to the S100 extracts and stimulated the extracts with cytochrome c and dATP. […] These observations indicate that Omi, like Smac, is able to disrupt the interaction of caspase-9 with XIAP in the S100 extracts to promote procaspase-3 activation.

endogenous XIAP = biological target: T3, endogenous XIAP (Homo sapiens, UniProt P98170); assay: Co-immunoprecipitation with endogenous XIAP in transfected 293T cells; type: cell-based; conditions: 293T cells transfected with C-terminal Flag-tagged Omi precursors, XIAP western blot
T3 construct: endogenous in cells; host or cells: 293T cells
T3 sequence (P98170 whole entry): as above
Source text: FIG. 9 is a scanned image of a blot representing western blot analysis using an XIAP monoclonal antibody (upper panel) or Flag antibody (middle panel) of 293T cells transfected with constructs encoding C-terminal Flag-tagged Omi wild type or mutant precursors and immunoprecipitated with Flag antibody. The lower panel is a scanned image of a blot representing total extracts probed with the XIAP antibody. Arrows indicate IgG bands.

Hela cells = assay: Staurosporine-induced apoptosis of Hela cells transfected with Omi precursor; type: cell-based, human; conditions: for apoptosis potentiation compared to vector-transfected cells: staurosporine, indicated or higher doses
Procedure: FIG. 18 is a bar graphic representation of the percentages of GFP-positive apoptotic HeLa cells following treatment with the indicated doses of staurosporine for five hours, 24 hours after transfection. The Hela cells were transfected with an empty vector or a construct encoding a C-terminally Flag-tagged Omi precursor together with pEGFP-N1 plasmid (Clontech) at a 4:1 ratio. The AVPS motif in the […] Omi precursor is mutated to a VVAS sequence (SEQ ID NO:10) to prevent binding to IAPs. The Insert represents the expression of mature Omi wild type and Omi S306A mutant in the transfected cells as determined by immunoblotting with Flag antibody.
To determine whether release of Omi can potentiate apoptosis, human Hela cells were transfected with the Omi precursor, and the cells were stimulated with different doses of staurosporine.

GST-BIR3-E314S mutant = biological target: T4, GST-BIR3-E314S mutant (Homo sapiens, UniProt P98170, E314S); assay: Interaction of purified recombinant proteins with GST-BIR3-E314S mutant; type: binding; conditions: purified C-terminal His6-tagged recombinant protein
T4 construct: Omi associates directly with the BIR3 domain of XIAP
T4 sequence (P98170 238-358 E314S limits assumed): as the sequence (P98170 238-358 limits assumed) above, with E77S counted along it
Source text: as §1
To confirm that Omi associates directly with the BIR3 domain of XIAP but not with the Smac protein, Smac was depleted from the 293 extracts using a Smac monoclonal antibody. Specifically, 293 cellular extracts were either left untreated (undepleted lane of FIG. 4) or depleted with a Smac antibody (lane depleted of FIG. 4). The undepleted and depleted extracts were incubated with the GST-BIR3 protein and the bound proteins were eluted as above. The eluates were then analyzed by far-western blotting with ^35S-XIAP and by western blotting with the Smac antibody as described above (see FIG. 4, left and right panels, respectively). […] The last lane of each panel in FIG. 4 represents the 293 cellular extracts that were bound to the E314S mutant GST-BIR3 fusion protein. […] The asterisk in FIG. 4 indicates non-specific bands and the arrow indicates the IgG band. […]

[3] = system: GST-BIR1, 2 fusion protein; assay: Interaction of purified recombinant proteins with GST-BIR1, 2 fusion protein; type: binding, human; conditions: purified C-terminal His6-tagged recombinant protein
Chain of GST-BIR1, 2 fusion protein (P98170 124-240 limits assumed): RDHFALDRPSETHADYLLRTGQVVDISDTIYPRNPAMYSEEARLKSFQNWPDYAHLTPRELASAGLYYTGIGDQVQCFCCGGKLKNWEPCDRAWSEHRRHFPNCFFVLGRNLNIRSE
Source text: as §1, §2

Molecule | interaction with GST-BIR3 fusion protein [1] | promotion of procaspase-3 activation [2] | apoptosis potentiation compared to vector-transfected cells (Hela cells; five hours) | further results
B1 | did not affect its interaction with GST-BIR3 | able to promote procaspase-3 activation in the XIAP-containing S100 extracts almost to the same extent as Smac |  | 
B2 | completely abolished its interaction with the GST-BIR3 fusion protein | abolished its caspase-promoting activity |  | 
B3 |  |  |  | interaction with endogenous XIAP in vivo (endogenous XIAP): abolished its interaction with endogenous XIAP
B4 |  |  | increased apoptosis was observed | transfected cells showing signs of apoptosis (Hela cells; 500 nM staurosporine, five hours, 24 hours after transfection, vector transfected cells ~20%): ~43%; induction of apoptosis (Hela cells; transiently expressed, absence of staurosporine): did not induce apoptosis
B5 |  |  | No apoptosis potentiation was observed | 
B6 | able to interact equally with the wild type GST-BIR3 protein |  |  | interaction with GST-BIR3-E314S mutant (GST-BIR3-E314S mutant): not with the GST-BIR3-E314S mutant; interaction with GST-BIR1, 2 fusion protein [3]: able to interact with the GST-BIR1, 2 fusion protein
